Drawing on publication PMC4658703 (2012), this text covers Kd for 1 molecule.

The assay deals with IGF2 (Homo sapiens, UniProt P01344).
Chain of IGF2 (P01344 25-91): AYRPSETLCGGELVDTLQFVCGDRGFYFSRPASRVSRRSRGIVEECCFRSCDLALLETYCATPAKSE

B1: IGF2R domain 11 (protein)
chain: MKSNEHDDCQVTNPSTGHLFDLSSLSGRAGFTAAYSKSGVVYMSICGENENCPPGVGACFGQTRISVGKANKRLRYVDQVLQLVYKDGSPCPSKSGLSYKSVISFVCRPEARPTNRPMLISLDKQTCTLFFSWHTPLACEQAT
As for B1, the affinity, expressed as Kd, was 15 nM.

As a reminder, the Kd is the constant that tells how readily two partners part at equilibrium. A high value points to weaker binding.
